Source: PMC8142856 (Cell, 2021)

B1: nsp9-nsp10 fusion protein (other)
chain: NNELSPVALRQMSCAAGTTQTACTDDNALAYYNTTKGGRFVLALLSDLQDLKWARFPKSDGTGTIYTELEPPCRFVTDTPKGPKVKYLYFIKGLNNLNRGMVLGSLAATVRLQAGNATEVPANSTVLSFCAFAVDAAKAYKDYLASGGQPITNCVKMLCTHTGTGQAITVTPEANMDQESFGGASCCLYCRCHIDHPNPKGFCDLKGKYVQIPTTCANDPVGFTLKNTVCTVCGMWKGYGCSCDQLREPMLQ
B2: template-primer RNA (dsRNA)
RNA 1: CAUGCCAUGGCCUCUAAAAUGUCAGCUGCUCCCUAGCAUGCUACUACCGCGUAGCAUG
RNA 2: GCGGUAGUAGCAUGCUAGGGAGCAG
B3: SARS-CoV-2 nsp14 (enzyme)
chain: AENVTGLFKDCSKVITGLHPTQAPTHLSVDTKFKTEGLCVDIPGIPKDMTYRRLISMMGFKMNYQVNGYPNMFITREEAIRHVRAWIGFDVEGCHATREAVGTNLPLQLGFSTGVNLVAVPTGYVDTPNNTDFSRVSAKPPPGDQFKHLIPLMYKGLPWNVVRIKIVQMLSDTLKNLSDRVVFVLWAHGFELTSMKYFVKIGPERTCCLCDRRATCFSTASDTYACWHHSIGFDYVYNPFMIDVQQWGFTGNLQSNHDLYCQVHGNAHVASCDAIMTRCLAVHECFVKRVDWTIEYPIIGDELKINAACRKVQHMVVKAALLADKFPVLHDIGNPKAIKCVPQADVEWKFYDAQPCSDKAYKIEELFYSYATHSDKFTDGVCLFWNCNVDRYPANSIVCRFDTRVLSNLNLPGCDGGSLYVNKHAFHTPAFDKSAFVNLKQLPFFYYSDSPCESHGKQVVSDIDYVPLKSATCITRCNLGGAVCRHHANEYRLYLDAYNMMISAGFSLWVYKQFDTYNLWNTFTRLQ

Key:
SARS-CoV-2 nsp14 = target: B3; test: SEC
SARS-CoV-2 nsp12 = SARS-CoV-2 nsp12 (SARS-CoV-2, UniProt P0DTD1); test: cryo-EM structure
nsp12 (RdRp with …) = target: nsp12 (RdRp with NiRAN);nsp7;nsp8;nsp9;nsp13 helicase;nsp10;nsp14 (ExoN / N7-MTase) (SARS-CoV-2;SARS-CoV-2;SARS-CoV-2;SARS-Co …, UniProt P0DTD1;P0DTD1;P0DTD1;P0DTD1;P0DTD1;P0DTD1;P0DTD1 …, ||||||); test: cryo-EM structure
SARS-CoV-2 nsp13 = SARS-CoV-2 nsp13 (SARS-CoV-2, UniProt P0DTD1 5325-5925); test: cryo-EM structure

B1: binds (SARS-CoV-2 nsp14); binds (SARS-CoV-2 nsp12).

B2: binds (nsp12 (RdRp with …)).

B3: binds (SARS-CoV-2 nsp12); binds (SARS-CoV-2 nsp13).
